For series [1], the target named is soluble part of FloA (flotillin A) with 6xHis tag (B. subtilis) (UniProt P54466). Put plainly: SEC; FloA6His after Ni-NTA on HiLoad 26/600 Superdex 200 pg, 1.5 ml/min, 20 mM HEPES, 200 mM NaCl, 20 mM MgCl2, 20 mM KCl, pH 7.5.
The test system of series [2] is P54466. The series is described as follows: SEC; HMW fraction of FloA-Strep run again on gel filtration undiluted, 3 fold and 5 fold diluted; peak areas measured. (In general: In gel filtration, larger molecules generally elute earlier.)
Series [3] addresses soluble part of FloA (flotillin A) with Strep-tag (B. subtilis) (UniProt P54466). The series is described as follows: SEC; FloAstrep after Strep-Tactin on Superose 6 10/300 GL, 0.5 ml/min, 100 mM Tris-Cl, 150 mM NaCl, pH 7.5.

As a reminder, the stoichiometry N is a count of units in the complex or per binding partner. “soluble part of FloA (flotillin A) with 6xHis tag (from UniProt P54466 56-331) (domain or fragment)” displayed a stoichiometry N in series [1] of 2. Take “soluble part of FloA (flotillin A) with Strep-tag”: in series [2], the “percent of the protein in the HMW fraction (5-fold diluted)” value was 82% are in the HMW fraction and 12% in the LMW peak; the “percent of the protein in the HMW fraction (undiluted or 3-fold diluted)” value was “about 90% of the proteins are in the HMW fraction”; the “percent of the protein in the LMW peak (5-fold diluted)” value was 82% are in the HMW fraction and 12% in the LMW peak. Consider “soluble part of FloA (flotillin A) with Strep-tag (from UniProt P54466 56-331) (domain or fragment)”, for which the stoichiometry N in series [3] was 4.
